According to US9580469B2, “Peptides for the treatment and early diagnosis of Alzheimer's disease and other tauopathies” (priority 2012, dated 2017):
Where no end group is shown, it is not given here. [ ]: non-standard residue; d: D form.

Key:
Assay type in all cases: biochemical
[1] = target: T1, tau full-length protein (Homo sapiens, UniProt P10636); assay: Dynamic light scattering (DLS) measurements of tau aggregation with arachidonic acid; settings: for Mass Day 1 / Mass Day 8 / Particle size Day 1 / Particle size Day 8: DLS, 1 μg/ml tau full-length protein, 100 μM arachidonic acid (AA), peptide at ratio 1:10; for Effect on aggregation of tau in DLS (in words): tau full-length protein, 100 μM arachidonic acid, peptide ratio 1:10
T1 construct: Since this is not possible for the full-length tau protein (441 amino acids)
T1 sequence (P10636 1-441 isoform P10636-8): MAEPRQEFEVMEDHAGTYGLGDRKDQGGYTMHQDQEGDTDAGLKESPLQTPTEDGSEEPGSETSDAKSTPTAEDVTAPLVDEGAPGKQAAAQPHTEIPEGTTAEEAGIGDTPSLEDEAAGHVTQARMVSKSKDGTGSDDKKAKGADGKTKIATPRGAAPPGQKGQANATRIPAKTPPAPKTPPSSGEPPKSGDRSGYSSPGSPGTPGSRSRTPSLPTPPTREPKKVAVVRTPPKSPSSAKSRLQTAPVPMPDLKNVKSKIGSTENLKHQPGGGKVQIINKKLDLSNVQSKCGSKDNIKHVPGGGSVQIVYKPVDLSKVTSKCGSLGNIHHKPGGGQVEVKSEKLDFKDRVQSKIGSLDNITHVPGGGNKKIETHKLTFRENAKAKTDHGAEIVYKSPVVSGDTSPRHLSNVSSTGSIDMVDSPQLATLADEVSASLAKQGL
Experimental: For this purpose. 1 μg/ml tau full-length protein was analyzed using 100 μM arachidonic acid and the respective peptide at a ratio of 1:10. Tau without peptide and without the addition of arachidonic acid was measured for control purposes. […] DLS was carried out with an acquisition time of 5 seconds for 3 minutes at room temperature.

[2] = target: tau fibrils (Homo sapiens, UniProt P10636); assay: Effect of peptides on existing tau fibrils
Sequence of tau fibrils (P10636 1-441 isoform P10636-8): as above

[3] = target: full-length tau protein (Homo sapiens, UniProt P10636); assay: ThT aggregation assay of tau with 100 μM arachidonic acid (relative fibril content); settings: 5 μM tau, tau:peptide 1:1 and 1:10, 24 hours
Sequence of full-length tau protein (P10636 1-441 isoform P10636-8): as above
Experimental: (§1) In mirror image phage display selections, the selection rounds are carried out against a D-enantiomer as the target, which must be generated synthetically. Since this is not possible for the full-length tau protein (441 amino acids), the selections were carried out against the D-enantiomer of a 6-mer tau fragment (PHF-6), which can be found in tau repeats R2 and R3 and, according to various studies, forms the core of the neurofibrillary tangles (von Bergen, M., Assembly of τ protein into Alzheimer paired helical filaments depends on a local sequence motif (306VQIVYK311) forming β structure PNAS, 1999. 97(10): p. 5129-5134; Miller, M., Synergistic Interactions between Repeats in Tau Protein and Aβ Amyloids May Be Responsible for Accelerated Aggregation via Polymorphic States. 5172-5181, 2011. 50(23): p. 5172-5181). Since aggregated material is to serve as the target for the selection, and monomeric tau protein has important physiological functions and must not be inhibited in vivo, only fribriilary material was used for the selection. […]
(§2) The concentration of tau was 5 μM; the peptides were added at a ratio of 1:1 and 1:10 (tau:peptide). The fluorescence of 5 μM tau after 24 hours of incubation was set at 100%, and the values and standard deviations of the remaining incubations are indicated as percentages of this maximal value.

[4] = target: PHF-6 (Homo sapiens, UniProt P10636); assay: ThT aggregation assay of PHF-6 (relative fibril content); settings: 25 μM PHF-6, PHF-6:peptide 1:1 and 1:10, two hours of incubation
Experimental: as §1, with “5172-5181).” for “5172-5181). Since aggregated material is to serve as the target for the selection, and monomeric tau protein has important physiological functions and must not be inhibited in vivo, only fribriilary material was used for the selection.”
as §2, with “PHF-6” for “tau”, “25” for “5”, “measured” for “added”, “(PHF-6:peptide) and as controls individually in a 25 μM concentration (not shown).” for “(tau:peptide).”, “two” for “24”

Mass Day 1 [1] | Mass Day 8 [1] | Substance | Effect on existing tau fibrils [2] | Particle size Day 1 [1] | Particle size Day 8 [1] | Effect on aggregation of tau in DLS (in words) [1] | Inhibition of fibrillization / aggregation of the full-length tau protein [3] | Inhibition of fibrillization / aggregation of the full-length tau protein ([3]; listed as peptide selected by Sievers) | Inhibition of aggregation / fibril formation of PHF-6 [4]
≧99% | 100% | TTSLQMRLYYPP (not fully specified (some residues)) [TL28, label not defined in the text] | – | – | – | – | – | – | –
≧99% | ≧98% | aptilrlhslga | dissolve existing tau fibrils | 1-fold | 1-fold | – | – | – | –
≧99% | ≧99% | kntpqhrklrls ([dK][dN][dT][dP][dQ][dH][dR][dK][dL][dR][dL][dS]) [D-peptide from selections against D-PHF-6] | dissolve existing tau fibrils | 1-fold | 1-fold | – | – | – | –
100% | ≧98% | tlkivw ([dT][dL][dK][dI][dV][dW]) [Sievers, reference compound] | – | – | – | showed no effect on the aggregation of the full-length tau protein | not the aggregation of the full-length tau protein | in most approaches showed no effect at all | inhibited the aggregation of PHF-6 to a similar degree as that of the peptides we developed

Substance | Mass Day 1 [1] | Mass Day 8 [1] | Effect on existing tau fibrils [2] | Particle size Day 1 [1] | Particle size Day 8 [1] | Effect on aggregation of tau in DLS (in words) [1] | Inhibition of fibrillization / aggregation of the full-length tau protein [3] | Inhibition of fibrillization / aggregation of the full-length tau protein ([3]; listed as peptide selected by Sievers) | Inhibition of aggregation / fibril formation of PHF-6 [4]
ppyylxmqlstt ([dP][dP][dY][dY][dL][dR][dM][dQ][dL][dS][dT][dT]) [TD28ri, retro-inverso peptide of …] | 100% | 100% | convert tau fibrils into large amorphous aggregates | 55-fold | 44-fold | formation of very large aggregates | – | – | –
ttslqmrlyypp ([dT][dT][dS][dL][dQ][dM][dR][dL][dY][dY][dP][dP]) [TD28] | 100% | 100% | convert tau fibrils into large amorphous aggregates | 42-fold | 48-fold | formation of very large aggregates | – | – | –
